Test results: PMC5910400

Target: CXCL8 (human)

| Substance | mean IC50 (three biological replicates) of inhibition of primary human granulocyte migration induced by the EC80 dose of CXCL8 |
| --- | --- |
| P1156:G4S:P1243 two-warhead evasin (from UniProt V5HBW0;A0A0C9S461) | 7.5e-09 M |
| P1243:G4S:P1156 two-warhead evasin (from UniProt A0A0C9S461;V5HBW0) | 3.8e-08 M |
